Experimental findings from the DeepSol protein solubility set are described below.

A short description of the data set: soluble on expression in E. coli; label from the status in PepcDB or PDB records.
In the case of “MIRMETYPHNFEEKVGFDEIRRLLIGHCHSPMGSDRVIQMHALARHNEVSRLLAETEEMQIILREEDLFPDLRLADVREALNRIRPAGTYLEERELQDVATALRTIEALIRFFHVGEEEEGKDTPYPHLQTLLSEVIVFPDLEKRISSLFDRFGKMKDNASPELMNIRRELSSIEKNISRTLQGILRLAQSEGWVDQGVQPSVRDGRLVIPVAPAHKRKVRGIVHDESGTGKTVFIEPAEIVEANNRIRELEAAERREIIRILIEVCDALRPHIHDLIDCYEWIGLFDFISAKARLCGEWNAIRPILSKKPEIRWEKAVHPLLLRSLRAHGRDVIPLDISLTAPDKRILVISGPNAGGKSVCLKTVGLLQYMLQSGLPIPMSPDSTAGIFGKLFIDIGDEQSIEDDLSTYSSHLRNMKHFARHTDKNTLLLIDEFGGGTEPQIGGAIAEALLHRFNEQEGFGVVTTHYQNLKAYAEETPGLVNGAMLYDRHEMRPLFRLSIGRPGSSFAIEIARKIGLPEEVIAEATDKVGTGYIDMDKYLQDIVRDKRYWETKRTNIRKEEKRLEGAAAEYESRLESIKKERKQILDEARQQASVMLSQSSAQIEKTIRDIKEAQAEREKTRRARQELNDFRETINKEEIEKEERINREIEKIKRRKKRKQEKAASRSAETPVQPKLQEVPQPPVIQVGDTVRIKGQTAIGSIIDMNDREATIALGMIKTTVPIDRLEPAKPVKERKSEPVSGASARMIIDRIHEKRLDFKQDIDLRGMRVNEAVQAVMYFIDDAIQLGIPRVRILHGTGTGALRTVIREYLATVNGVRHFADEHVQFGGAGITVVELG”, the “soluble on expression in E. coli” value was “not soluble”. The entry for “MIRRAKPLLGTLIEIAVESVVEASSQSALDEPAIQAAITAAFSRITQIGRLLSFHQQDSELNLLNRQPGQWITLSQDSLRVFKLAKWFGKASDNLFNCTIGGEMMSRGALPCYLGMPLLLQGDWQDIEIRGNQARLARPLIVTFDGIAKGYAVDMAVRELRRAGVSGGWVNAGGDLKVFGSASLDVLCRGSNGLSQKVTVRNMALASSRVSLQLSLGCPALLLPTGNVDMMSFDASNERVVSVQAPFAWRADALTKVAGYLSAEAAKDKIQQLGGQLVC” is “not soluble”; for “MIRRAVVAGQFYPDDAELVEMLKRFFTDLGEEGNSRRITAGVAPHAGYIFSGYTASRTYKAIYEDGLPEVFVILGPNHTGLGSPIAVYPKGEWETPLGRIKVDEKLARRITELSEIADLDDLAHKYEHSIEVQLPFIQYLAELSGKDVKIVPITLGIQDEEVSYALGKAIYEASQELGRDIVVIASTDFMHYGEFYGYVPFRARADELPNLVKEWDMRVIRRILDFDVEGMFEEINAMNHTMCGPGGVGVGIVYSKLAGAIEAELLHYTTSFEVSRSTDAIVGYASIVMRKALEHHHHHH” it is “not soluble”. For “MIRTVKPKNARAKRALVKREAKLVENVKQALFIPGQSCNKNLHDIMVDLSALKKPDMKRFNRKNDIHPFEDMSPLEFFSEKNDCSLMVLMTSSKKRKNNMTFIRTFGYKIYDMIELMVADNFKLLSDFKKLTFTVGLKPMFTFQGAAFDTHPVYKQIKSLFLDFFRGESTDLQDVAGLQHVISMTIQGDFQDGEPLPNVLFRVYKLKSYKSDQGGKRLPRIELVEIGPRLDFKIGRIHTPSPDMVTEAHKKPKQLEMKTKKNVELDIMGDKLGRIHMGKQDLGKLQTRKMKGLKSKFDQGTEEGDGEVDEDYEDEASYSDDGQEYEEEFVSATDIEPSAKRQKK”, the “soluble on expression in E. coli” value is listed as “not soluble”.

With “MISATYRLQLNKNFNFGDVIDNLWYFKDLGVSHLYLSPVLMASPGSNHGYDVIDHSRINDELGGEKEYRRLIETAHTIGLGIIQDIVPNHMAVNSLNWRLMDVLKMGKKSKYYTYFDFFPEDDKIRLPILGEDLDTVISKGLLKIVKDGDEYFLEYFKWKLPLTEVGNDIYDTLQKQNYTLMSWKNPPSYRRFFDVNTLIGVNVEKDHVFQESHSKILDLDVDGYRIDHIDGLYDPEKYINDLRSIIKNKIIIVEKILGFQEELKLNSDGTTGYDFLNYSNLLFNFNQEIMDSIYENFTAEKISISESIKKIKAQIIDELFSYEVKRLASQLGISYDILRDYLSCIDVYRTYANQIVKECDKTNEIEEATKRNPEAYTKLQQYMPAVYAKAYEDTFLFRYNRLISINEVGSDLRYYKISPDQFHVFNQKRRGKITLNATSTHDTKFSEDVRMKISVLSEFPEEWKNKVEEWHSIINPKVSRNDEYRYYQVLVGSFYEGFSNDFKERIKQHMIKSVREAKINTSWRNQNKEYENRVMELVEETFTNKDFIKSFMKFESKIRRIGMIKSLSLVALKIMSAGIPDFYQGTEIWRYLLTDPDNRVPVDFKKLHEILEKSKKFEKNMLESMDDGRIKMYLTYKLLSLRKQLAEDFLKGEYKGLDLEEGLCGFIRFNKILVIIKTKGSVNYKLKLEEGAIYTDVLTGEEIKKEVQINELPRILVRM”, the “soluble on expression in E. coli” value is recorded as “soluble”.

For “MISDRPGLPGEDMRLALLSFENYLLANRNTEKPVLHIALSPAPEDKLTDEQLAELAQNYMQKMGYGDQPYIAYKHGDTHNTHIHIVSVCVDEEGRKINDSFEHRRSMTACRELEIDFGLRNGADMEERNQKAEMKKVDATQGDVRHQIGNTLKAVLESYRFQTFGEYSALLSTLNIEAKQVRGEFKGEPYTGIIYSATDDSGKVVSPPFKSSRFGKRFGNERLEKRMLSHTRDFKDGKWAPTIHAQVVYAMRHARSREELAGLLKKARIDAVFRENEQGRIYGVTFIDHNRREVFNGSRMGKEFSANIYNELFKWWDGIPATERSAHTGTELWQHHSHKAESGSPLEQAASIFSMETNPVDYGEEALARRMKKRRKAKRKSRGI”, the “soluble on expression in E. coli” value is “not soluble”. Under “MISFNNVSKVYESGGQSVHAVEDVTLSVEKGEIFGIIGFSGAGKSTLLRLVNMLERPTAGTISIDDKDITSLSTKELRKLRQRIGMIFQSFNLFNSRTVFGNIAYPLKLAKVPKNEIKERVNELLKFVGLEDKANNYPEQLSGGQKQRVGIARALATSPDILICDEATSALDPETTTEILNLLKKVNREYNLTILLITHEMHVVKEICHRVAVMEKGKVIEEGKLFDVFTQPKTTTTQNFVRSVINDHLPESVLAKIQNGGQIYRLTFTGEETGQPVLSYIAKNYNVDVNVLYGNIIELQNVLFGNLLVELQGEQREIQKALQHLRLQVQLKEVEAHAS” stands “not soluble”; under “MISLPSGTRIWLVAGVTDMRKSFNGLGEQVQHVLDETPFSGHLFIFRGRRGDTVKILWADADGLCLFTKRLEEGQFIWPAVRDGKVSITRSQLAMLLDKLDWRQPKTFRLNSLTML”, “not soluble”.

In the case of “MISSKLKLQSLTSKDLSAILELDQACFGGLWTMEGYQRELDSPNSDLLGLFSPSSPIKLLGMGCFWSIVGEAHITILAVHPQYHHQGLGQALLYFLLRTASDRGLERATLEVRASNEAAISLYQKFGFQTAGRRRAYYQDNGEDALILWLPDLQYPQFQETLAHWKTIIQDGLQKYSWSIVNSR”, the “soluble on expression in E. coli” value is given as “soluble”.

Consider “MISSWEQKNNCVMPEDVRNFYLMTNGFHMTWSVKLDDHIIPLGSMVINGISKLTQLIQSSVYSLPNAPTLADLEDDSQEGNEDHQLEKPHFDCRSAIFELDSCGGNGKVCLVYKNGKPGLAHDTEIWFLDRALYWHFLTDTFTAYYRLLITHLGLPQWQYAFTSYGISPQAKQWFSMYKPITYNTSLLTEEPDTFVNKLDPSKVFKSKNKILIPKKKGPVQPVSGQKGPGPLAPPTSKPSAGCGNPVRK”, for which the “soluble on expression in E. coli” value is “not soluble”. Take “MITQEMKDLINNQLAMVATVDAKGQPNIGPKRSMRLWDDKTFIYNENTDGQTRINIEDNGKIEIAFVDRERLLGYRFVGTAEIQTEGAYYEAAKKWAQGRMGVPKAVGIIHVERIFNLQSGANAGKEINSESN”: the “soluble on expression in E. coli” value is listed as “not soluble”. In the case of “MITSPTNLNSLPIPPGDFGLPWLGETLNFLNDGDFGKKRQQQFGPIFKTRLFGKNVIFISGALANRFLFTKEQETFQATWPLSTRILLGPNALATQMGEIHRSRRKILYQAFLPRTLDSYLPKMDGIVQGYLEQWGKANEVIWYPQLRRMTFDVAATLFMGEKVSQNPQLFPWFETYIQGLFSLPIPLPNTLFGKSQRARALLLAELEKIIKARQQQPPSEEDALGILLAARDDNNQPLSLPELKDQILLLLFAGHETLTSALSSFCLLLGQHSDIRERVRQEQNKLQLSQELTAETLKKMPYLDQVLQEVLRLIPPVGGGFRELIQDCQFQGFHFPKGWLVSYQISQTHADPDLYPDPEKFDPERFTPDGSATHNPPFAHVPFGGGLRECLGKEFARLEMKLFATRLIQQFDWTLLPGQNLELVVTPSPRPKDNLRVKLHSLM”, the “soluble on expression in E. coli” value is “soluble”. Under “MITVNTLQKMKAAGEKIAMLTAYESSFAALMDDAGVDVLLVGDSLGMAVQGRQSTLPVSLRDMCYHTECVARGAKNAMIVSDLPFGAYQQSKEQAFAAAAELMAAGAHMVKLEGGVWMAETTEFLQMRGIPVCAHIGLTPQSVFAFGGYKVQGRGGKAQALLNDAKAHDDAGAAVVLMECVPAELAKKVTESVSCPTIGIGAGVDCDGQVLVMHDMLGIFPGKTAKFVKNFMQGQSSIQAAVRAYVAEVKAKTFPAAEHIFAD” stands “not soluble”; under “MIVPPPEELTGARVLAYALIDESTPYSGRITLYVDGELIGPVPRLVIALNNYGPDDYLLLYCNENWDVIGAGGHASLVAAKESANIAYPGVASRWQDVA”, “not soluble”. Under “MIWNETIECMDRESLRKIQSIRLKKIVDYVYHNTPFYRKKMQEMGITPDDINTIDDIVKLPFTTKHDLRDNYPFGLCAVPMSQIVRIHASSGTTGKPTVVGYTRKDLSSWAECISRAFTAYGAGRSDIFQVSYGYGLFTGGLGAHAGAENIGASVIPMSSGNTEKQITLMHDFGSTVLCCTPSYALYLADAIKDSGYPREEFQLKVGALGAEPWTENMRHEIEEKLGIKAYDIYGLSEIAGPGVGYECECQHGTHLNEDHYFPEIIDPNTLQPVEPGQTGELVFTHLTKEGMPLLRYRTRDLTALHYDKCSCGRTLVRMDRILGRSDDMLIIRGVNVFPTQIESVILEMEEFEPHYLLIVGRENNTDTMELQVEVRPDFYSDEINRMLALKKKLASRLQSVLGLGVNVKLVEPRSIERSVGKAKRVIDNRKI” stands “not soluble”. Under “MIYDFTTKISRKNLGSLKWDLMYSQNPEVGNEVVPLSVADMEFKNPPELIEGLKKYLDETVLGYTGPTEEYKKTVKKWMKDRHQWDIQTDWIINTAGVVPAVFNAVREFTKPGDGVIIITPVYYPFFMAIKNQERKIIECELLEKDGYYTIDFQKLEKLSKDKNNKALLFCSPHNPVGRVWKKDELQKIKDIVLKSDLMLWSDEIHFDLIMPGYEHTVFQSIDEQLADKTITFTAPSKTFNIAGMGMSNIIIKNPDIRERFTKSRDATSGMPFTTLGYKACEICYKECGKWLDGCIKVIDKNQRIVKDFFEVNHPEIKAPLIEGTYLQWIDFRALKMDHKAMEEFMIHKAQIFFDEGYIFGDGGIGFERINLAAPSSVIQESLERLNKALKDLKNRHLK” stands “soluble”; under “MIYFIRKKKWLKQLEKGEAMKYAILIGDGMADYPIEKLGNRTILQAARTPAMDSIAARGRAGLAKTVPDSFPPGSDVANMSILGYDPATYYSGRAPLEAASMGVALAADDVAFRCNLITTEHGMIKDYSAGHISSDEAEILIDTLDYELSTENIRFYPGISYRHLIVAGNNLGAETECTPPHDITGEKIDKYLPRGKDGEFFSELIEASKVVLELHPVNLKRVEEGKNPANSIWVWGQGYAPKFTAFMKLYGKKGAVISAVDLLKGIGIYAGLDVIEVHGATGYLDTNYEGKVRAAIEALKTRDLVFVHVEAPDEAGHEGSIEKKLKAVEDFDSRIVAPILEYAENSDEPFTILVLPDHPTPISVKTHTRDPIPFAIYRTDKPETDNVEAFDEESVKNGSMGLVKASDLIGILIKS”, “not soluble”. “MKAAPLIGISRHRLSTDGEGVTTLVAFHGCPLRCKYCLNPQSLHSEGIWKNYDCEQLYEEVRQDELYFLATNGGITFGGGEPCLQSDFIYEFRQLCGQEWQLSVETSLNVTQENIEKLVPVVDSYIIDIKDINNTIYQKYTGKNNEKVLHNLQYLIEHGKNEQIIVRTPVIPAYNTENDVDNSIRLLKEMGIIQFDRFTYKTPNNCQP”: the “soluble on expression in E. coli” value is listed as “not soluble”.
